One test deals with human PDGFRA (human, UniProt P16234 24-524, limits assumed). Put plainly: binding ELISA on coated human PDGFRA; parental EC50 divided by variant EC50; pool evaluation. Background: An ELISA detects its analyte on a solid surface through an enzyme-linked reagent.
Test [1] deals with T1, cPDGFRA extracellular domain (ECD)-Fc fusion protein (dog).
T1 construct: extracellular domain; also called cPDGFRA-Fc; cPDGFRA-ECD-Xa-Fc
Put plainly: titration binding ELISA on coated cPDGFRA-Fc; parental EC50 divided by variant EC50; pool evaluation.

The target of test [2] is T2, canine platelet derived growth factor receptor alpha (cPDGFRA) (dog, UniProt A0A8I3NAN8 49-553, biotinylated (sites not given) in the blocking ELISA).
T2 construct: The construct is not described; also called biotinylated-cPDGFRA
Put plainly: blocking ELISA: antibody with biotinylated cPDGFRA on coated canine PDGFAA; parental IC50 divided by variant IC50; pool evaluation.

For test [3], the target named is T1, cPDGFRA extracellular domain (ECD)-Fc …. Put plainly: comparison of the KD values of Table 1.
The target is the same in test [4]. Nature of the test: binding ELISA on coated cPDGFRA-Fc; unit from paragraph 44.
Test [5] has the same target. Nature of the test: SPR, BIAcore T200, cPDGFRA-ECD-Xa-Fc immobilized, antibody injected, 25 C. The method, then: The binding kinetics of selected K9-6N6.1 variants to cPDGFRA were measured using a BIAcore T200 instrument (BIAcore, Inc., Piscataway, N.J.). Briefly, a cPDGFRA extracellular domain (ECD)-Fc fusion protein was immobilized on a sensor chip and antibody was injected at various concentrations. Sensograms were obtained at each concentration and evaluated using the BIA Evaluation 3.0 program to determine rate constants. The affinity constant (KD) was calculated from the ratio of rate constants Koff/Kon. The evaluation was performed at 25° C.

The target is the same in test [6]. Put plainly: kinetic binding to PDGFRA-Fc, antibody 30 nM; method not named for Table 1.
The target in test [7] is T2, canine platelet derived growth factor …. Put plainly: blocking ELISA: antibody with biotinylated cPDGFRA on coated canine PDGFAA; unit from paragraph 44.
Another test concerns the target T3, human PDGFRA-Fc (human, UniProt P16234 24-524, limits assumed).
T3 construct: also called PDGFRA-Fc (Human); not shown: Fc
Put plainly: kinetic binding to PDGFRA-Fc, antibody 30 nM; method not named for Table 1.

T3 sequence (P16234 24-524 limits assumed): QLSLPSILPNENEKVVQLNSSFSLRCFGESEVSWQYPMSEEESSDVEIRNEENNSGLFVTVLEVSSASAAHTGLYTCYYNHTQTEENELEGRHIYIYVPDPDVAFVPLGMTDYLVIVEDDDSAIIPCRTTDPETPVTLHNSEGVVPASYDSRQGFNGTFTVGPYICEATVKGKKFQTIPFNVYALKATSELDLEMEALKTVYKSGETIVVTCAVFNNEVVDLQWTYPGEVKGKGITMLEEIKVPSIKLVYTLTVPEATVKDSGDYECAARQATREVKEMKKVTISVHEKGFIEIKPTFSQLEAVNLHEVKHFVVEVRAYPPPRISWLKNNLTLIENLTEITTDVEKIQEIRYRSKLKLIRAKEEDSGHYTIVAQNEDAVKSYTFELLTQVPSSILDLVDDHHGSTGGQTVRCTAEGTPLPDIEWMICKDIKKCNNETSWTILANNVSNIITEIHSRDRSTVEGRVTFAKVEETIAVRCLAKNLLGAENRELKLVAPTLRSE
Chain of human PDGFRA (P16234 24-524 limits assumed): as above

B1: K9-6N6.1 variant LC-S28A (clone 2A2) (antibody, V domains shown)
VH: QLQLQESGPGLVKPSETLSLTCTVSGGSINSSSYYWGWLRQSPGKGLEWIGSFFYTGSTYYNPSLRSRLTISVDTSKNQFSLMLSSVTAADTAVYYCARQSTYYYGSGNYYGWFDRWDQGTLVTVSS
VL: EIVLTQSPATLSLSPGERATLSCRASQAVSSYLAWYQQKPGQAPRLLIYDASNRATGIPARFSGSGSGTDFTLTISSLEPEDFAVYYCQQRSNWPPAFGQGTKVEIKR
For the molecule B1, in the test with human PDGFRA, the “Human PDGFRA Binding EC50 improvement (fold) over parental K9-6N6.1” value came out at 1.83 fold. The “cPDGFRA Binding EC50 improvement (fold) over parental K9-6N6.1” value in test [1] worked out at 1.43 fold. The “cPDGFRA Blocking IC50 improvement (fold) over parental K9-6N6.1” value in test [2] is 13.4 fold.

B2: K9-6N6.1 (antibody)
heavy: QLQLQESGPGLVKPSETLSLTCTVSGGSINSSSYYWGWLRQSPGKGLEWIGSFFYTGSTYYNPSLRSRLTISVDTSKNQFSLMLSSVTAADTAVYYCARQSTYYYGSGNYYGWFDRWDQGTLVTVSSASTTAPSVFPLAPSCGSTSGSTVALACLVSGYFPEPVTVSWNSGSLTSGVHTFPSVLQSSGLYSLSSMVTVPSSRWPSETFTCNVAHPASKTKVDKPVPKRENGRVPRPPDCPKCPAPEMLGGPSVFIFPPKPKDTLLIARTPEVTCVVVDLDPEDPEVQISWFVDGKQMQTAKTQPREEQFNGTYRVVSVLPIGHQDWLKGKQFTCKVNNKALPSPIERTISKARGQAHQPSVYVLPPSREELSKNTVSLTCLIKDFFPPDIDVEWQSNGQQEPESKYRTTPPQLDEDGSYFLYSKLSVDKSRWQRGDTFICAVMHEALHNHYTQESLSHSPGK
light: EIVLTQSPATLSLSPGERATLSCRASQSVSSYLAWYQQKPGQAPRLLIYDASNRATGIPARFSGSGSGTDFTLTISSLEPEDFAVYYCQQRSNWPPAFGQGTKVEIKRNDAQPAVYLFQPSPDQLHTGSASVVCLLNSFYPKDINVKWKVDGVIQDTGIQESVTEQDKDSTYSLSSTLTMSSTEYLSHELYSCEITHKSLPSTLIKSFQRSECQRVD
notes: Olaratumab HCVR on canine IgB heavy constant region, Olaratumab LCVR on canine kappa constant region; also called parental K9-6N6.1; parent K9-6N6.1
One may read the EC50 as the concentration that produces a half-maximal response. High values mean a less potent agent, low ones a more potent agent. A word on the Kd: it is the concentration at which binding is half-saturated. Usually koff stands for the rate constant with which the complex falls apart. Read a low koff as slow dissociation. Usually kon stands for the second-order rate constant of association. High values mean faster complex formation, low ones slower complex formation. As usually defined, the IC50 is the concentration needed to halve the response being measured. As to B2, the “fold lower affinity than Olaratumab binding to human PDGFRA” value in [3] was roughly 10 fold. Moreover, the EC50 in test [4] is 0.272 nM. In [5], the “Improvement (fold) of KD over parent K9-6N6.1” value amounted to 1 fold, the Kd was 4.87 nM, the koff amounted to 0.00247 s⁻¹ and the kon stood at 508000 M⁻¹ s⁻¹. In [6], this molecule gave a Kd of 1.92 nM, a koff of 0.00161 s⁻¹ and a kon of 840000 M⁻¹ s⁻¹. The molecule also registered a 50% inhibitory concentration (IC50) in test [7] of 31.5 nM.

B3: Olaratumab (antibody, human IgG1, kappa)
heavy: not shown
light: not shown
notes: Fully human IgG1 monoclonal antibody; also called IMC-3G3; human Olaratumab
With B3, the “fold lower affinity than Olaratumab binding to human PDGFRA” value in test [3] was roughly 10 fold. For the same molecule, in test [6], binding was put at a Kd of 3.44 nM, the koff came to 0.00294 s⁻¹ and the kon is 856000 M⁻¹ s⁻¹. Further, in the test with human PDGFRA-Fc, the affinity, expressed as Kd, was 0.307 nM; the koff was determined as 0.000248 s⁻¹; the kon amounted to 808000 M⁻¹ s⁻¹.

Values taken from patent publication US20190300612A1 (ELANCO US, published 2019).
